T1: chimera protein of the VP16 transcription activating region and the bHLH-PAS region part of Sim2 (human, UniProt Q14190 1-500)
T1 construct: domain: bHLH-PAS region part; also called VP16-Sim2; pVP16-Sim2 (bHLH-PAS) product
T1 sequence: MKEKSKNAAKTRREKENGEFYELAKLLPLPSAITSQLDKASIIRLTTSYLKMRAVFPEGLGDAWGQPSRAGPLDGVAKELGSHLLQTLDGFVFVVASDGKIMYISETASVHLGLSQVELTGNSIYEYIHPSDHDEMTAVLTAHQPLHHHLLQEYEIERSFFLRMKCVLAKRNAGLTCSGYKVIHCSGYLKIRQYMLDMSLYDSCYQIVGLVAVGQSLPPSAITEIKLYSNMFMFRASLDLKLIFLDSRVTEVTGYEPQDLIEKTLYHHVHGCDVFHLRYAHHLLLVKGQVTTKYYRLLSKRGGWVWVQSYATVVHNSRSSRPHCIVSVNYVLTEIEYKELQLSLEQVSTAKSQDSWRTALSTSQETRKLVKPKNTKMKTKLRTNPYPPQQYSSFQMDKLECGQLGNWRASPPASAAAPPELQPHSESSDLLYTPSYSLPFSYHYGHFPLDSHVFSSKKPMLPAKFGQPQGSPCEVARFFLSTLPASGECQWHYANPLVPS

T2: chimera protein of the VP16 transcription activating region and the bHLH-PAS region part of Clock (human, UniProt O15516 1-530)
T2 construct: domain: bHLH-PAS region part; also called VP16-Clock; pVP16-Clock (bHLH-PAS) product
T2 sequence: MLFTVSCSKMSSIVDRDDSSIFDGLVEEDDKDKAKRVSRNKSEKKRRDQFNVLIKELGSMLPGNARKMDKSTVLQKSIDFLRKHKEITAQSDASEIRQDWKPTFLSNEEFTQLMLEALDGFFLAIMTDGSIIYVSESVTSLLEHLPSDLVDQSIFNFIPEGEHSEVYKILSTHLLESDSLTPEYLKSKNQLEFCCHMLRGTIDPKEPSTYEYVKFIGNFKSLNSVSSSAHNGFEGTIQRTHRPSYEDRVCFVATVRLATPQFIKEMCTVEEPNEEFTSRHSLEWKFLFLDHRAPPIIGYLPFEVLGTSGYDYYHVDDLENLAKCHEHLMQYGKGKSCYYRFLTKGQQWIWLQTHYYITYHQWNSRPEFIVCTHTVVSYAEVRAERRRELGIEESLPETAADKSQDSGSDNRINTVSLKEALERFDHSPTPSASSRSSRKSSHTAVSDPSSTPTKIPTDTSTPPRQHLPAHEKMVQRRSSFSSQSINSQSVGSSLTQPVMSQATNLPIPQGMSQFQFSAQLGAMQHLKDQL

B1: chimera protein of the VP16 transcription activating region and the bHLH-PAS region part of the present transcription activating factor (mNXF) (other)
chain: MYRSTKGASKARRDQINAEIRNLKELLPLAEADKVRLSYLHIMSLACIYTRKGVFFAGGTPLAGPTGLLSAQELEDIVAALPGFLLVFTAEGKLLYLSESVSEHLGHSMVDLVAQGDSIYDIIDPADHLTVRQQLTMPSALDADRLFRCRFNTSKSLRRQSSGNKLVLIRGRFHAHPPGAYWAGNPVFTAFCAPLEPRPRPGPGPGPGPGPASLFLAMFQSRHAKDLALLDVSESVLIYLGFERSELLCKSWYGLLHPEDLAQASSQHYRLLAESGDIQAEMVVRLQAKHGGWTWIYCMLYSEGPEGPFTANNYPISDT
notes: also called VP16-NXF; pVP16-NXF (bHLH-PAS) product
B2: chimera protein of the DNA-binding region of GAL4 and the bHLH-PAS region part of the present transcription regulatory factor (mNXF) (other)
chain: MKLLSSIEQACDICRLKKLKCSKEKPKCAKCLKNNWECRYSPKTKRSPLTRAHLTEVESRLERLEQLFLLIFPREDLDMILKMDSLQDIKALLTGLFVQDNVNKDAVTDRLASVETDMPLTLRQHRISATSSSEESSNKGQRQLTVSMYRSTKGASKARRDQINAEIRNLKELLPLAEADKVRLSYLHIMSLACIYTRKGVFFAGGTPLAGPTGLLSAQELEDIVAALPGFLLVFTAEGKLLYLSESVSEHLGHSMVDLVAQGDSIYDIIDPADHLTVRQQLTMPSALDADRLFRCRFNTSKSLRRQSSGNKLVLIRGRFHAHPPGAYWAGNPVFTAFCAPLEPRPRPGPGPGPGPGPASLFLAMFQSRHAKDLALLDVSESVLIYLGFERSELLCKSWYGLLHPEDLAQASSQHYRLLAESGDIQAEMVVRLQAKHGGWTWIYCMLYSEGPEGPFTANNYPISDT
notes: Expressed in HeLa cells for the two-hybrid assay; also called Gal4-mNXF; Gal4-NXF

Key:
[1] = target: B2; experiment: mammalian two-hybrid assay in HeLa cells (Gal4-NXF + VP16-NXF, luciferase reporter)
[2] = target: T1, chimera protein of the VP16 …; experiment: mammalian two-hybrid assay in HeLa cells (Gal4-NXF + VP16-X, luciferase reporter)
[3] = target: T2, chimera protein of the VP16 …; experiment: as above

B1
binding result [1]: no binding

B2
binding result [2]: no binding | binding result [3]: no binding

From patent US20060216705A1 (SUMITOMO CHEMICAL, published 2006)
